The values below are quoted from earlier work in article PMC6128780.

The target in the data set is Fibronectin (Homo sapiens) (UniProt P02751).
Sequence of UniProt P02751 (P02751 32-2477): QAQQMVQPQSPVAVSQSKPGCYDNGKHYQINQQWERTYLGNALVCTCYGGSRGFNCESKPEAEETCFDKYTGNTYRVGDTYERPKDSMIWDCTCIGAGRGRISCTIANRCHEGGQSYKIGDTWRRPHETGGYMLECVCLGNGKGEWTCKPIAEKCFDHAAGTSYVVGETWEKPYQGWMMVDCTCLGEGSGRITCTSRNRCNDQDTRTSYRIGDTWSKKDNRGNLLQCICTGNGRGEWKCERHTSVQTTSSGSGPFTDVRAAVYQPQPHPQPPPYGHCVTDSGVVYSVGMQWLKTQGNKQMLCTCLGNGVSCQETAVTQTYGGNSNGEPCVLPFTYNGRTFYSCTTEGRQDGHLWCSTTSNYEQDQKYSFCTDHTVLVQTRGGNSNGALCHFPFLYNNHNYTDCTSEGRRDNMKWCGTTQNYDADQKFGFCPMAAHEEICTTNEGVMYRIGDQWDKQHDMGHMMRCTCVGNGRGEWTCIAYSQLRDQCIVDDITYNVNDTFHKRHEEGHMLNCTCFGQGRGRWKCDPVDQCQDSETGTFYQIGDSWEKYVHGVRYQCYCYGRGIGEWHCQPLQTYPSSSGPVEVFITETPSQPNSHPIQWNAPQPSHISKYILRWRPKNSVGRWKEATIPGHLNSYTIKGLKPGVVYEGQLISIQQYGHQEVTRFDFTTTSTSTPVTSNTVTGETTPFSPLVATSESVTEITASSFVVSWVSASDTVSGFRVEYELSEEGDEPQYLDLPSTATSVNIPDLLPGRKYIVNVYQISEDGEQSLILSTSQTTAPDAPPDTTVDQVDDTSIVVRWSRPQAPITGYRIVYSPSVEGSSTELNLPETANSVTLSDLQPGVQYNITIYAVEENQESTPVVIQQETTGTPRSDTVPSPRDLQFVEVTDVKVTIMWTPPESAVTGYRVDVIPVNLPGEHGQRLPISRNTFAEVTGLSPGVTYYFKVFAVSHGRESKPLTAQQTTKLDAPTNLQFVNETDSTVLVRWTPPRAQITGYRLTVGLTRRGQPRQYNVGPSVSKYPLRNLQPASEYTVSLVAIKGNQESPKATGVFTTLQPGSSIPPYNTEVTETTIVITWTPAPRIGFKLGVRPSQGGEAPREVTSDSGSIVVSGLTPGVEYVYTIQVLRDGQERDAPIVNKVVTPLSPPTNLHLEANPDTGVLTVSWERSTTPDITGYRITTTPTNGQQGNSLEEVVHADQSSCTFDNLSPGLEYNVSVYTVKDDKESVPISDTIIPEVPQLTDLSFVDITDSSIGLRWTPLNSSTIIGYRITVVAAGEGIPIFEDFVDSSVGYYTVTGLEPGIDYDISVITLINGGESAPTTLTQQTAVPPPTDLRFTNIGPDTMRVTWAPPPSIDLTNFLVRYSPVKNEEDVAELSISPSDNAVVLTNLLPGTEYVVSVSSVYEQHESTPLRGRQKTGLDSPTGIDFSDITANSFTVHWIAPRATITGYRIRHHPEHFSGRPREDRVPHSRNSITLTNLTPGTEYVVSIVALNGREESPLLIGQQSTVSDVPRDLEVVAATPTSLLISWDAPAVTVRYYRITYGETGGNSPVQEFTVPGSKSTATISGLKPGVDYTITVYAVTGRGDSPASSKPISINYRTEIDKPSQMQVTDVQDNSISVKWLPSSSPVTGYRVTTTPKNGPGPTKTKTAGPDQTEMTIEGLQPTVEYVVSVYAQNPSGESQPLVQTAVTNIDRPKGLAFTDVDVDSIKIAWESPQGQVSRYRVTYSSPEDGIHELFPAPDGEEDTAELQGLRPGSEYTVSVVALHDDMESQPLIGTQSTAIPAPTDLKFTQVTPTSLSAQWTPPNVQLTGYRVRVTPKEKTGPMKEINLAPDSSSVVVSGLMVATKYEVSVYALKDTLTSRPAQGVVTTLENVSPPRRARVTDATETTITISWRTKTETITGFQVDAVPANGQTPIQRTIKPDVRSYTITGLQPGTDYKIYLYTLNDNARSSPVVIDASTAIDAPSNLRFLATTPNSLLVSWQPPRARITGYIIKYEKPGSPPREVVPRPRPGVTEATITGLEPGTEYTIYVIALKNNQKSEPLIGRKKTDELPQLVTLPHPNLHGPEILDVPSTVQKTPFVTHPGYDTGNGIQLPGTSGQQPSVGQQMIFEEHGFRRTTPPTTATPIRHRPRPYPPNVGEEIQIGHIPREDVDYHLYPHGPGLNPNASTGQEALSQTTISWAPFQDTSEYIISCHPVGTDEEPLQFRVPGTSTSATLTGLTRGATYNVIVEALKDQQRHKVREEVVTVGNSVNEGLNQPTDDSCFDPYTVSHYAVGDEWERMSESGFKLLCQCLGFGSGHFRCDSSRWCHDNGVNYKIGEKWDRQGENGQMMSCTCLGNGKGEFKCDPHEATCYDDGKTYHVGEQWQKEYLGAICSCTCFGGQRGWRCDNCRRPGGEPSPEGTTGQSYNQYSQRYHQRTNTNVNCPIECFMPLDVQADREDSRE

On to “Carcinoembryonic antigen (CEA) IgV-like N domain (from UniProt P06731)”, for which the Kd is 16 nM.

In general, Kd refers to a measure of binding affinity in units of concentration.
